For 1 substance, rate of σ^S turnover in the presence of IraP and AcP with a 5-fold excess of RssBN (Figure S4) results are on record in article PMC4428439.

The target of the test is IraP with a C-terminal His10-tag, purified (E. coli) (UniProt P0AAN9).
Chain of IraP with a C-terminal His10-tag, purified (E. coli) (P0AAN9 whole entry): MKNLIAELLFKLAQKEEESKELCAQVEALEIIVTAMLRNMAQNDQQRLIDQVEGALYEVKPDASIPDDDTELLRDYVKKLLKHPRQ

As for “RssBN, N-terminal domain of RssB (residues 1-129), untagged, purified (from UniProt P0AEV1 1-129) (domain or fragment)”, the rate of σ^S turnover in the presence of IraP and AcP with a 5-fold excess of RssBN (Figure S4) amounted to 2 fold.
